These results are taken from patent publication US20260035476A1.

For this experiment, the target named is CD68 protein (human) (UniProt P34810). Kind of experiment: flow cytometry on lupus patient PBMC, B cells (FIG. 3B).
Sequence of UniProt P34810 (P34810 22-354): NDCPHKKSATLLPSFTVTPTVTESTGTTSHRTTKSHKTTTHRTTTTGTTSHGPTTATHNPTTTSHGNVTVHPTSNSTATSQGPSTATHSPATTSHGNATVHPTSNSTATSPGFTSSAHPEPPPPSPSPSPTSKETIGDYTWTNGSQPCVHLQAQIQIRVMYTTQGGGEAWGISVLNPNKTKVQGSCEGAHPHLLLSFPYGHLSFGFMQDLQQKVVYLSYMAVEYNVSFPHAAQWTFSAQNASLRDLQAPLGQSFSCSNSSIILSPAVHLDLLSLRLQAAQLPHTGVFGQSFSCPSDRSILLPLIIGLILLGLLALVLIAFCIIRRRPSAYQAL

In turn, Y1/82A anti-CD68 monoclonal antibody registered a percent of B cells co-stained for CD68 and ARID3a of 29%.
